The values that follow come from patent US20240343814A1.

The Kd is the concentration at which binding is half-saturated. As a reminder, the koff is the first-order rate constant of dissociation. For orientation: kon means the second-order rate constant of association.

Where a chain is given by its changes, count along the chain named.

To fix the notation:
B1: VRDN-02538 (antibody, V domains shown)
VH: EVQLVQSGGGLVKPGGSLRLSCAASGFTFSSFAMHWVRQAPGKGLEWISVIDTRGATYYADSVKGRFTISRDNAKNSLYLQMNSLRAEDTAVYYCARLGNFYYGMDVWGQGTTVTVSS
VL: EIVLTQSPGTLSVSPGERATLSCRASQSIGSSLHWYQQKPGQAPRLLIHYASQSLSGIPDRFSGSGSGTDFTLTISRLEPEDFAVYYCHQSSRLPHTFGQGTKVEIK
B2: VRDN-02558 (antibody, V domains shown)
VH: B1 VH with A33H, D52H
VL: B1 VL with H49K
B3: VRDN-02554 (antibody, V domains shown)
VH: B1 VH with D52H
VL: B1 VL with H49K, Y50H
B4: VRDN-02571 (antibody, V domains shown)
VH: B1 VH with D52H, M105H
VL: B1 VL with H49K, Y50H
B5: VRDN-02568 (antibody, V domains shown)
VH: B1 VH with A33H, D52H, M105H
VL: B1 VL with H49K
B6: VRDN-02555 (antibody, V domains shown)
VH: B1 VH with A96H
VL: B1 VL with H49K, Y50H
B7: VRDN-02561 (antibody, V domains shown)
VH: B1 VH with A33H, M105H
VL: B1 VL with H49K
B8: VRDN-02563 (antibody, V domains shown)
VH: B1 VH with D52H, G104H
VL: B1 VL with H49K
B9: VRDN-02564 (antibody, V domains shown)
VH: B1 VH with D52H, M105H
VL: B1 VL with H49K
B10: VRDN-02570 (antibody, V domains shown)
VH: B1 VH with A33H, M105H
VL: B1 VL with H49K, Y50H
B11: VRDN-02553 (antibody, V domains shown)
VH: B1 VH with A33H
VL: B1 VL with H49K, Y50H
B12: VRDN-02569 (antibody, V domains shown)
VH: B1 VH with A33H, D52H
VL: B1 VL with H49K, Y50H
B13: VRDN-02562 (antibody, V domains shown)
VH: B1 VH with D52H, A96H
VL: B1 VL with H49K

The experiment concerns the target Recombinant human his-tagged IGF 1R extracellular domain protein (human) (UniProt P08069). As to the kind of experiment: SPR, captured IgG, IGF-1R ECD-his analyte, dissociation pH 6. In general terms: SPR reads the build-up and loss of mass on a sensor chip optically.
Consider B1, for which the Kd is 0.0463 nM, the koff is 1e-06 s⁻¹ and the kon was determined as 21600 M⁻¹ s⁻¹.

Take B2: the Kd stood at 3.15 nM, the koff amounted to 0.00017 s⁻¹ and the kon was found to be 53900 M⁻¹ s⁻¹.

Turning to B3, the Kd came to 1.53 nM, the dissociation rate constant (koff) is 0.000152 s⁻¹ and the kon was found to be 99500 M⁻¹ s⁻¹.

For B4, the Kd was 2.15 nM, the koff came to 0.000344 s⁻¹ and the kon was 160000 M⁻¹ s⁻¹.

B5: the Kd was determined as 29.9 nM, the koff is 0.000129 s⁻¹ and the kon turned out to be 4320 M⁻¹ s⁻¹.

Consider B6, for which the dissociation constant (Kd) was 0.851 nM, the koff came out at 0.000418 s⁻¹ and the kon stood at 491000 M⁻¹ s⁻¹.

Turning to B7, the Kd was 1.64 nM, the koff was 0.000539 s⁻¹ and the kon came out at 329000 M⁻¹ s⁻¹.

On to B8, for which the Kd is 3.46 nM, the koff was found to be 0.000353 s⁻¹ and the kon came to 102000 M⁻¹ s⁻¹.

Take B9: the Kd came out at 1.48 nM, the koff was 0.000507 s⁻¹ and the kon worked out at 344000 M⁻¹ s⁻¹.

Consider B10, for which the Kd was 1.76 nM, the koff came to 0.000376 s⁻¹ and the on-rate constant (kon) came out at 214000 M⁻¹ s⁻¹.

On to B11, for which the Kd stood at 1.56 nM, the koff was found to be 0.000534 s⁻¹ and the kon is 341000 M⁻¹ s⁻¹.

Consider B12, for which the Kd was determined as 1.51 nM, the koff came out at 0.000516 s⁻¹ and the kon was 342000 M⁻¹ s⁻¹.

In the case of B13, the Kd is 1.34 nM, the koff was 0.00018 s⁻¹ and the kon amounted to 135000 M⁻¹ s⁻¹.
